8 molecules from US20260098095A1 (Hoffmann-La Roche, published 2026) can be followed below.

Positions count from the first letter of the chain named.

The target of test [1] is T1, HLA-A2/MAGE-A4 peptide MHC (pMHC) complex on cells (human). Kind of test: cell-based or functional assay.
Test [2] has as its target T1, HLA-A2/MAGE-A4 peptide MHC (pMHC) …. Kind of test: cell-based or functional assay. This is another data set of the same source.
The target of test [3] is T2, HLA-A2/MAGE-A4p230-239 complex (human).
T2 construct: also called HLA-A2/MAGEp230-239
Nature of the test: SPR Biacore T200, antibody captured by anti-human Fc, pMHC complex as analyte, 25 C, 1:1 Langmuir fit.
Protocol: The dissociation phase was monitored for 240 s and triggered by switching from the sample solution to HBS-EP+. The chip surface was regenerated after every cycle using an injection of 3M MgCl₂ at 10 μl/min for 30 sec. Bulk refractive index differences were corrected for by subtracting the response obtained on the reference flow cell which contains the anti-human Fc antibody, but without HLA-A2/MAGE-A4 antibody captured on it. The affinity constants were derived from the kinetic rate constants by fitting to a 1:1 Langmuir binding using the BIAeval software (GE Healthcare). The measurement was performed in triplicate with independent dilution series.

B1: Molecule U (bispecific antibody, V domains shown)
VH 1: QVQLQQSGGEVMKPGASVKLSCKATGYTFTGYWIEWIKQRPGHGLEWIGEILPGSGGTNYNEKFKGKATFTAHTSSNTAYMQLSSLTTEDSAIYYCARDSNSFTYWGQGTLVTVSS
VL 1: QIVLTQSPAIMSASPGEKVTITCSVSSSVDYIHWFQQKPGTSPKFWIYSTSILASGVPARFSGSGSGTSYSLTISRMEAEDAATYYCQQRSSYPPTFGSGTKLEIK
VH 2: EVQLVESGGGLVQPGGSLRLSCAASGYSFTGYTMNWVRQAPGKGLEWVALINPYKGVSTYNQKFKDRFTISVDKSKNTAYLQMNSLRAEDTAVYYCARSGYYGDSDWYFDVWGQGTLVTVSS
VL 2: DIQMTQSPSSLSASVGDRVTITCRASQDIRNYLNWYQQKPGKAPKLLIYYTSRLESGVPSRFSGSGSGTDYTLTISSLQPEDFATYYCQQGNTLPWTFGQGTKVEIK
For B1, in test [1], the “EC50 (nM), T-cell mediated lysis of A375 cells, 48 h” value is 1.96 nM; the “EC50 (nM), T-cell mediated lysis of NCI-H2023 cells, 48 h” value was determined as 1.12 nM; the “EC50 (nM), T-cell mediated lysis of UMUC-3 cells, 48 h” value worked out at 0.45 nM.

B2: Molecule N (antibody, V domains shown)
VH: B1 VH 1
VL: B1 VL 1
As to B2, the “EC50 (pM), activation of PGLALA-CAR-J cells in presence of MAGE-A4 peptide pulsed T2 cells” value (shortened to “EC50 (pM), activation”) in test [2] was 19.2 pM.

B3: Molecule L (antibody, V domains shown)
VH: not shown
VL: SSELTQDPAVSVALGQTVRITCQGDSLRSYYASWYQQKPGQAPVLVIYGKNNRPSGIPDRFSGSSSGNTASLTITGAQAEDEADYYCNSRQSSYYHHIVFGGGTKLTVL
notes: also called 032G09 IgG antibody
For the molecule B3, the “EC50 (pM), activation” value in test [2] came out at 83.7 pM. In test [3], the affinity, expressed as Kd, was 25.1 nM; the koff (in general, the first-order rate constant of dissociation) was 0.003 s⁻¹; the kon (as a rule, the second-order rate constant of association) is 120000 M⁻¹ s⁻¹.

B4: Molecule M (antibody, V domains shown)
VH: not shown
VL: B3 VL with G67S, Q91M, Y94R, I98D
notes: also called 034F05 IgG antibody
With B4, the “EC50 (pM), activation” value in test [2] stood at 19.2 pM. In test [3], the Kd (as a rule, the equilibrium constant for the complex coming apart) was 2.47 nM; the koff amounted to 0.00111 s⁻¹; the kon is 450000 M⁻¹ s⁻¹.

B5: Molecule H (antibody, V domains shown)
VH: YVQLVESGGGLVKPGGSLRLSCAAPLPFTGLDMSWVRQAPGKGLEWVGSISPKGGSTYYNDNVLGRFTISRDNSKNTLYLQMNSLRAEDTAVYYCARDWGFFDLWGQGTLVTVSS
VL: AIQMTQSPSSLSASVGDRVTITCRASQSISNYLAWYQQKPGKAPKLLIYDANAHENDVPSRFSGSGSGTDFTLTISSLQPEDFATYYCQQYSSHPYTFGQGTKLEIK
notes: also called 007A09 IgG antibody
As for B5, the “EC50 (pM), activation” value in test [2] stood at 8.6 pM. In test [3], this molecule registered a Kd of 17.3 nM, a koff of 0.00426 s⁻¹ and a kon of 247000 M⁻¹ s⁻¹.

B6: Molecule J (antibody, V domains shown)
VH: TQQLVESGGGLVQPGGSLRLSCAASGFSFSFDTMSWVRQAPGKGLEWVGSISPSGGSTYYNDNVLGRFTISRDNSKNTLYLQMNSLRAEDTAVYYCARDHGYFDMWGQGTLVTVSS
VL: B5 VL with A1D, N31S, N52S, A53W, H54L, N56L, D57G, H94Y
notes: also called 057B04 IgG antibody
For the molecule B6, the “EC50 (pM), activation” value in test [2] came out at 208 pM. In test [3], this molecule returned a Kd of 40.7 nM, a koff of 0.043 s⁻¹ and a kon of 1.06e+06 M⁻¹ s⁻¹.

B7: Molecule K (antibody, V domains shown)
VH: AQLVESGGGLVQPGGSLRLSCAASAYFSFKAMSWVRQAPGKGLEWVGSISPSGGSTYYNDNVLGRFTISRDNSKNTLYLQMNSLRAEDTAVYYCAKDVGFFDEWGQGTLVTVSS
VL: B5 VL with A1D, N31S, N52S, A53I, H54R, E55D, N56I, D57G, H94Y
notes: also called 057D03 IgG antibody
On to B7, for which the “EC50 (pM), activation” value in test [2] came out at 18.2 pM. Besides, in test [3], binding was characterised by a dissociation constant (Kd) of 15.7 nM, the koff was 0.0408 s⁻¹ and the kon is 2.6e+06 M⁻¹ s⁻¹.

B8: Molecule I (antibody, V domains shown)
VH: B5 VH with V2P, P25R, L26Y, G30R, L104N
VL: B5 VL with D50N, N52S, A53H, H54P, N56Y
notes: also called 007D10 IgG antibody
In the case of B8, the “EC50 (pM), activation” value in test [2] amounted to 182 pM. Moreover, in test [3], binding was put at a Kd of 96.4 nM, the koff was 0.00246 s⁻¹ and the kon is 25500 M⁻¹ s⁻¹.
